This is an account of results in patent publication US7740853.

This assay concerns the target mouse low affinity IgE receptor FcεRII (mouse) (UniProt P20693). The assay can be described thus: FACS analysis of 0.12A3 cells with the B3B4 antibody. Background: In flow cytometry, cells or beads pass a laser one at a time.
Chain of UniProt P20693 (P20693 whole entry): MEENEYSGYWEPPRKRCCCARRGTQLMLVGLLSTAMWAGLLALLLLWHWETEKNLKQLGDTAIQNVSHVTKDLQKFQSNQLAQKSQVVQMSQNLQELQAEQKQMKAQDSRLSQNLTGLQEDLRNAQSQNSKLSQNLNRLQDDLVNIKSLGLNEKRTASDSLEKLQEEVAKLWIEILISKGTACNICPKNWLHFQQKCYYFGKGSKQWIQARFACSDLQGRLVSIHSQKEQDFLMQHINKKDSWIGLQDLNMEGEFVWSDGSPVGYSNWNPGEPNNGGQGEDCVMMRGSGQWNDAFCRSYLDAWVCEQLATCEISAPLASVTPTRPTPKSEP

Consider “B3B4 antibody against the FcεRII receptor (Pharmigin)”, for which the percent of cells on which the receptor was expressed came out at 54%.
